Assay [1] deals with HRP29 decoration protein gp48 (Shigella phage HRP29). As to the kind of experiment: cryo-EM structure.
Assay [2] concerns the target HRP29 portal protein gp35 (Shigella phage HRP29). Briefly: cryo-EM structure.
For assay [3], the target named is HRP29 tailspike protein gp52 (Shigella phage HRP29). As to the kind of experiment: negative-stain electron microscopy with 2D classes and 3D reconstruction.
In assay [4] the target is HRP29 tailspike adapter protein gp44 (in the virion) (Shigella phage HRP29). Briefly: cryo-EM structure.

We go through 4 substances from PMC10842012.

With “HRP29 decoration protein gp48 (natural protein)”, the stoichiometry N (commonly the number of molecules, sites or subunits per partner or assembly) in assay [1] came to 2.
For “HRP29 portal protein gp35 (natural protein)”, in assay [2], the stoichiometry N stood at 12.
Substance “HRP29 tailspike protein gp52 (natural protein)” showed a stoichiometry N in assay [3] of 3.
In assay [4], “HRP29 tailspike adapter protein gp44 (in the virion) (natural protein)” showed a stoichiometry N of 3.
